Results published in patent publication US20160228506A1, “Compositions and Formulations for Prevention and Reduction of Tumorigenesis, Cancer Cell Proliferation and Invasion, and Methods of Production and Use Thereof in Cancer Treatment” (PRONUTRIA, INC., priority 2013, published 2016).
Changes are numbered by the printed parent chain. Names may count otherwise.

Legend:
[1] = tested on: SEQID-00338 kinase activity (AMP + ATP→ADP); test: Kinase activity of SEQID-00338 (ADP-Glo Max Assay); type: biochemical; settings: 7 μg/mL, 30 minute reaction at 30° C.
Description: The ADP-Glo™ Max Assay was obtained from Promega (Catalog number V7001, Madison, Wis.). Adenosine Monophosphate was obtained from Sigma-Aldrich (Catalog number A1752, St. Louis, Mo.). 5× Kinase Buffer was prepared w/ 1.211 g Tris Base (Catalog number BP152-2, Fisher Bioreagents, Pittsburgh, Pa.), 692 μL 12% hydrochloric acid solution (Catalog number BDH3026-500MLP, VWR, Radnor, Pa.), 10.0 mL 500 mM magnesium chloride (Catalog number BP214-500, Fisher Bioreagents, Pittsburgh, Pa.) and the volume brought to 50 mL with MilliQ water and filtered through 0.22 μm PES filter (Catalog number SCGP00525, Millipore, Billerica, Mass.) into a sterile 50 mL tube.
Twelve his-tag purified mutant proteins and the wild-type protein at 35 μg/mL in Tris buffer were serially diluted to 7.0 and 1.4 μg/mL. Prepared kinase reaction mix at 0.5 mM AMP/0.5 mM ATP to test for activity and at 0 mM AMP/0 mM ATP to assay background activity by diluting 5× Kinase Buffer with appropriate volumes of 10 mM AMP and 10 mM ATP in MilliQ water. Duplicate reactions were prepared by mixing 9 μL of the reaction mixture with 6 μL of diluted SEQID-00338, mixing by pipetting up and down and dispensing 5 μL into a 384-well white OptiPlate (PerkinElmer, Waltham, Mass.). An ADP standard curve was prepared by serially diluting 4 mM ADP in MilliQ water and adding kinase buffer to 1× for a standard at 0.0005, 0.001, 0.005, 0.01, 0.05, 0.1, 0.5, 1, 2, 3, and 4 mM ADP. The plate was covered with a foil plate seal and incubated at 30° C. for 30 min. Following the kinase reaction, 5 μL of ADP-Glo™ Reagent was added to each well. The plate was sealed with a foil plate seal and placed on a horizontal plate shaker at 450 rpm for 2 minutes at room temperature. The plate was removed from the plate shaker and incubated at room temperature for 40 minutes. The plate was then centrifuged for 15 seconds at 1109×rcf and 10 μL of ADP-Glo™ Max Detection Reagent was added. The plate was sealed with a foil plate seal and shaken on a horizontal plate shaker at 450 rpm at room temperature for 2 minutes. The plate was then removed from the plate shaker and incubated at room temperature for 60 minutes. The plate was centrifuged for 15 seconds at 1109×rcf and the luminescence read on an EnspireAlpha plate reader (PerkinElmer, Waltham, Mass.).
The ADP standard curve was used to determine the concentration of ADP in sample wells in the presence or absence of substrate. Concentrations were determined by performing a non-linear 4 parameter logistic on the X=log(X) transformed ADP standard luminescence values. […] Where the background concentration of ADP in the absence of substrate was calculable the average of those values were subtracted from the calculated ADP concentration in the substrate incubated wells. Activity knock out was calculated by percentage activity relative to purified wild-type protein at the same concentration.

[2] = SGF digest of 168 nutritive polypeptide library, intact protein by LC-MS/MS; type: in vitro ADME; settings: for % Intact Protein at 10 min: 168 nutritive polypeptide library SGF digest, LC-MS/MS spectral counts; for % Remaining at 10 min: 168 nutritive polypeptide library, LC-MS/MS
Outline: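 Spectral-count ratios (10 min vs 0 min, peak gel fraction plus neighbours) give the percent of each protein left intact after SGF digestion of a pooled, IMAC-purified 168-member recombinant library. Samples were gel-fractionated, trypsinised in-gel and run on Orbitrap nanoLC-MS/MS, requiring two unique peptides at 1% FDR.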

pH solubility = type: physicochemical; settings: for pH Range where Protein is >80% detected as Soluble and A650 <1 OD: Low: lower pH; for pH Range where Protein is >80% detected as Soluble and A650 <1 OD: High: upper pH
Description: pH Solubility. […] Protein was either lyophilized and then resuspended in buffer cocktail mixtures, or concentrated and then spiked into buffer cocktail mixtures at a final protein concentration of 5 to 30 mg/ml. As a control, protein was also dissolved in a solution of 8 M urea. Protein solutions were shaken for 10 min at room temperature. Turbidity of proteins was determined by measuring the absorbance of protein solutions at 650 nm. The protein solution was then centrifuged for 10 min at 1100×g to pellet undissolved or precipitated protein. The soluble protein fraction (supernatant) was sampled and protein concentration was measured by one or more of the following methods: Coomassie Plus Protein Assay (Pierce), Chip electrophoresis, gel electrophoresis, and/or absorbance at 280 nm. The pH range over which select proteins remained greater than 80% soluble as determined by Bradford and the A650 value are listed in Table E31C.

[3] = Thermostability, temperature of aggregation (ProteoStat Thermal Shift); type: physicochemical; parameters: key to Tagg: temperature in °C
Description: The thermostability of proteins in a buffer cocktail of Citric Acid and Dibasic Sodium Phosphate over a pH range of 2.8 to 7.1 (preparation described above in Table E31B) was determined using the ProteoStat® Thermal Shift Stability Kit (Enzo Life Sciences) according to the manufacturer's standard protocol. Briefly, protein solutions (˜10 mg/ml) containing 1× ProteoStat TS Detection Reagent were heated from 25° C. to 95° C. at a rate of 0.5° C. per 30 sec using a real-time PCR (rtPCR) thermocycler (BioRad) equipped with a plate reader (SynergyMx, Biotek) while monitoring the fluorescence with a Texas Red filter.

[4] = Intact half-life during simulated gastric fluid (SGF) digestion; settings: for SGF Half-life (t½): SGF pH 1.5, pepsin:polypeptide 1:20 w/w, 37° C., intact protein; for Half-life: purified proteins, chip electrophoresis

B1: R134M: single amino acid mutant of SEQID-00338, substrate binding position 134 (protein, listed as Saccharomyces cerevisiae)
chain: MSSSESIRMVLIGPPGAGKGTQAPNLQERFHAAHLATGDMLRSQIAKGTQLGLEAKKIMDQGGLVSDDIMVNMIKDELTNNPACKNGFILDGFPRTIPQAEKLDQMLKEQGTPLEKAIELKVDDELLVARITGMLIHPASGRSYHKIFNPPKEDMKDDVTGEALVQRSDDNADALKKRLAAYHAQTEPIVDFYKKTGIWAGVDASQPPATVWADILNKLGKD
modifications: source: /note="strain ATCC 204508 / S288c"
[1]
  AVG percent activity relative to purified wild-type protein: 0.3%

B2: R42G: single amino acid mutant of SEQID-00338, position 42 (protein, listed as Saccharomyces cerevisiae)
chain: B1 chain with R42G, M134R
modifications: source: /note="strain ATCC 204508 / S288c"
[1]
  AVG percent activity relative to purified wild-type protein: 1.2%

B3: D91F: single amino acid mutant of SEQID-00338, magnesium ion binding site position 91 (protein, listed as Saccharomyces cerevisiae)
chain: B1 chain with D91F, M134R
modifications: source: /note="strain ATCC 204508 / S288c"
[1]
  AVG percent activity relative to purified wild-type protein: 0.9%

B4: R42A: single amino acid mutant of SEQID-00338, substrate binding position 42 (protein, listed as Saccharomyces cerevisiae)
chain: B1 chain with R42A, M134R
modifications: source: /note="strain ATCC 204508 / S288c"
[1]
  AVG percent activity relative to purified wild-type protein: 0.9%

B5: R42L: single amino acid mutant of SEQID-00338, position 42 (protein, listed as Saccharomyces cerevisiae)
chain: B1 chain with R42L, M134R
modifications: source: /note="strain ATCC 204508 / S288c"
[1]
  AVG percent activity relative to purified wild-type protein: 1.7%

B6: R42C: single amino acid mutant of SEQID-00338, position 42 (protein, listed as Saccharomyces cerevisiae)
chain: B1 chain with R42C, M134R
modifications: source: /note="strain ATCC 204508 / S288c"
[1]
  AVG percent activity relative to purified wild-type protein: 1.8%

B7: R134Y: single amino acid mutant of SEQID-00338, substrate binding position 134 (protein, listed as Saccharomyces cerevisiae)
chain: B1 chain with M134Y
modifications: source: /note="strain ATCC 204508 / S288c"
[1]
  AVG percent activity relative to purified wild-type protein: 0.2%

B8: R42T: single amino acid mutant of SEQID-00338, position 42 (protein, listed as Saccharomyces cerevisiae)
chain: B1 chain with R42T, M134R
modifications: source: /note="strain ATCC 204508 / S288c"
[1]
  AVG percent activity relative to purified wild-type protein: 1.9%

B9: R42I: single amino acid mutant of SEQID-00338, position 42 (protein, listed as Saccharomyces cerevisiae)
chain: B1 chain with R42I, M134R
modifications: source: /note="strain ATCC 204508 / S288c"
[1]
  AVG percent activity relative to purified wild-type protein: 1.5%

B10: R42Q: single amino acid mutant of SEQID-00338, position 42 (protein, listed as Saccharomyces cerevisiae)
chain: B1 chain with R42Q, M134R
modifications: source: /note="strain ATCC 204508 / S288c"
[1]
  AVG percent activity relative to purified wild-type protein: 1.2%

B11: R42K: single amino acid mutant of SEQID-00338, position 42 (protein, listed as Saccharomyces cerevisiae)
chain: B1 chain with R42K, M134R
modifications: source: /note="strain ATCC 204508 / S288c"
[1]
  AVG percent activity relative to purified wild-type protein: 2.2%

B12: SEQID-00622: protein of the 168 nutritive polypeptide library (protein, listed as Oryza sativa)
chain: MASEGAVSPAFAYTVVYVKDVAKSAAFYSAAFGYTVRRLDQSHKWAELESGTTTIAFTPLHQRETDALTGAVQLPDSAGERGPVEICFDYADVDAAYRRAVDSGAVPVSPPEQKSWGQKVGYVRDIDGIIVRMGSHVRA
modifications: source: /note="subsp. japonica"
notes: protein of the 168 nutritive polypeptide library
[2]
  % Intact Protein at 10 min: 43.6%
  % Remaining at 10 min: 43.6%
pH solubility
  pH Range where Protein is >80% detected as Soluble and A650 <1 OD: Low: 2.8
  pH Range where Protein is >80% detected as Soluble and A650 <1 OD: High: 7.1
[3]; pH 2.8
  Tagg: 58.5
[3]; pH 3.7
  Tagg: 42
[3]; pH 3.9
  Tagg: 42
[3]; pH 4.3
  Tagg: 43.5
[3]; pH 4.6
  Tagg: 43.5
[3]; pH 5.0
  Tagg: 42.5
[3]; pH 5.6
  Tagg: 45.5
[3]; pH 6.0
  Tagg: 46
[3]; pH 6.5
  Tagg: 47
[3]; pH 7.1
  Tagg: 95
[4]
  SGF Half-life (t½): 6.6 min
  Half-life: 6.6 min

B13: SEQID-00511: protein of the 168 nutritive polypeptide library (protein)
chain: MVLFGFGKKKSLPKPEEALPGRDRVMSVPDRHYINGNPLKPPFPEGMEQAVFGLGCFWGAERKFWQQQGVFSTAVGYAGGYTKNPTYEEVCSGMTGHTEVVLVVFDPKVISYTDLLKLFWESHNPTQGMRQGNDTGTQYRSAIYTYSDEQQRLALASRDRYQQALSAASYGEITTEIAPAQEFYYAEAYHQQYLGKNPNGYCGLGGTGVGCPAMTETSV
modifications: Arthrospira platensis C1
notes: as for B12
[2]
  % Intact Protein at 10 min: 4.3%
  % Remaining at 10 min: 4.3%
pH solubility
  pH Range where Protein is >80% detected as Soluble and A650 <1 OD: Low: 5.6
  pH Range where Protein is >80% detected as Soluble and A650 <1 OD: High: 7.1
[3]; pH 6.0
  Tagg: 39.5
[3]; pH 6.5
  Tagg: 45.5
[3]; pH 7.1
  Tagg: 42
[4]
  SGF Half-life (t½): 0.3 min
  Half-life: 0.3 min
